Seven molecules from US20190127454A1 (ACADEMIA SINICA, published 2019) can be followed below.

First the molecules themselves.
B3: human SCUBE2 (Signal peptide-CUB-EGF domain-containing protein 2) (receptor)
chain: RAAGPQEDVDECAQGLDDCHADALCQNTPTSYKCSCKPGYQGEGRQCEDIDECGNELNGGCVHDCLNIPGNYRCTCFDGFMLAHDGHNCLDVDECLENNGGCQHTCVNVMGSYECCCKEGFFLSDNQHTCIHRSEEGLSCMNKDHGCSHICKEAPRGSVACECRPGFELAKNQRDCILTCNHGNGGCQHSCDDTADGPECSCHPQYKMHTDGRSCLEREDTVLEVTESNTTSVVDGDKRVKRRLLMETCAVNNGGCDRTCKDTSTGVHCSCPVGFTLQLDGKTCKDIDECQTRNGGCDHFCKNIVGSFDCGCKKGFKLLTDEKSCQDVDECSLDRTCDHSCINHPGTFACACNRGYTLYGFTHCGDTNECSINNGGCQQVCVNTVGSYECQCHPGYKLHWNKKDCVEVKGLLPTSVSPRVSLHCGKSGGGDGCFLRCHSGIHLSSGLQGAYSVTCGSSSPLRNKQQKSNDSAFGDVTTIRTSVTFKLNEGKCSLKNAELFPEGLRPALPEKHSSVKESFRYVNLTCSSGKQVPGAPGRPSTPKEMFITVEFELETNQKEVTASCDLSCIVKRTEKRLRKAIRTLRKAVHREQFHLQLSGMNLDVAKKPPRTSERQAESCGVGQGHAENQCVSCRAGTYYDGARERCILCPNGTFQNEEGQMTCEPCPRPGNSGALKTPEAWNMSECGGLCQPGEYSADGFAPCQLCALGTFQPEAGRTSCFPCGGGLATKHQGATSFQDCETRVQCSPGHFYNTTTHRCIRCPVGTYQPEFGKNNCVSCPGNTTTDFDGSTNITQCKNRRCGGELGDFTGYIESPNYPGNYPANTECTWTINPPPKRRILIVVPEIFLPIEDDCGDYLVMRKTSSSNSVTTYETCQTYERPIAFTSRSKKLWIQFKSNEGNSARGFQVPYVTYDEDYQELIEDIVRDGRLYASENHQEILKDKKLIKALFDVLAHPQNYFKYTAQESREMFPRSFIRLLRSKVSRFLRPYK
notes: Signal peptide a.a; 1-37 and mature protein a.a; also GST.SCUBE2-CUB); also called FLAG.SCUBE2-FL; FLAG-tagged SCUBE2

Assay [1] has as its target B3. Kind of assay: domain mapping (FIG. 12A); method not described.
The target in assay [2] is T1, SCUBE3 (UniProt Q8IX30 21-993, limits assumed).
T1 construct: also called SCUBE3 protein
T1 sequence (looked up): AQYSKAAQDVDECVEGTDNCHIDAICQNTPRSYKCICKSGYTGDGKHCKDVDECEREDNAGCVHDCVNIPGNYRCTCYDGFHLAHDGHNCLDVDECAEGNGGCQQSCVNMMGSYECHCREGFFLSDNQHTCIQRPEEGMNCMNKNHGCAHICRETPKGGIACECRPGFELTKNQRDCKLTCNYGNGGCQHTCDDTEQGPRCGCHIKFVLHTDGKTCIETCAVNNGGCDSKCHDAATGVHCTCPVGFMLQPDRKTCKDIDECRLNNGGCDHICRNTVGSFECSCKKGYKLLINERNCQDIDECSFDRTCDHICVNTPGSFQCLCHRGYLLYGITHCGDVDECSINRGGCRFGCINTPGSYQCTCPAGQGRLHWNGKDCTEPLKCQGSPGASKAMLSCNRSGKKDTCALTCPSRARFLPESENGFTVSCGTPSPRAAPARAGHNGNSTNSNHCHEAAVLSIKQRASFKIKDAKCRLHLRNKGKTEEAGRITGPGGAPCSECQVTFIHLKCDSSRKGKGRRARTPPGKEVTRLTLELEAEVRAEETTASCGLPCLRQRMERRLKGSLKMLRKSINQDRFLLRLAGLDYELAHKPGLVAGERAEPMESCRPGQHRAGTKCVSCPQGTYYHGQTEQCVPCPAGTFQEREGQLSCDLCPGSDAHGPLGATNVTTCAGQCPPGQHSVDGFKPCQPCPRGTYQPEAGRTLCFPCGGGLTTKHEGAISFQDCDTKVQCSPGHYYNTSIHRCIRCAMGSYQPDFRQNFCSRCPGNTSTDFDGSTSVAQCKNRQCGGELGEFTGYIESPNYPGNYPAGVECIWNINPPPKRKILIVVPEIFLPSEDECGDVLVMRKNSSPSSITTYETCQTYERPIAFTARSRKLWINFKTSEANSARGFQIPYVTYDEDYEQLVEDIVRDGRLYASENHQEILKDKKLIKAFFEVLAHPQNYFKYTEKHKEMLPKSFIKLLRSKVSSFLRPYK
The experiment in a line: co-immunoprecipitation.

For assay [3], the target named is T2, SCUBE1 (UniProt Q8IWY4 24-988, limits assumed).
T2 construct: also called SCUBE1 protein
T2 sequence (looked up): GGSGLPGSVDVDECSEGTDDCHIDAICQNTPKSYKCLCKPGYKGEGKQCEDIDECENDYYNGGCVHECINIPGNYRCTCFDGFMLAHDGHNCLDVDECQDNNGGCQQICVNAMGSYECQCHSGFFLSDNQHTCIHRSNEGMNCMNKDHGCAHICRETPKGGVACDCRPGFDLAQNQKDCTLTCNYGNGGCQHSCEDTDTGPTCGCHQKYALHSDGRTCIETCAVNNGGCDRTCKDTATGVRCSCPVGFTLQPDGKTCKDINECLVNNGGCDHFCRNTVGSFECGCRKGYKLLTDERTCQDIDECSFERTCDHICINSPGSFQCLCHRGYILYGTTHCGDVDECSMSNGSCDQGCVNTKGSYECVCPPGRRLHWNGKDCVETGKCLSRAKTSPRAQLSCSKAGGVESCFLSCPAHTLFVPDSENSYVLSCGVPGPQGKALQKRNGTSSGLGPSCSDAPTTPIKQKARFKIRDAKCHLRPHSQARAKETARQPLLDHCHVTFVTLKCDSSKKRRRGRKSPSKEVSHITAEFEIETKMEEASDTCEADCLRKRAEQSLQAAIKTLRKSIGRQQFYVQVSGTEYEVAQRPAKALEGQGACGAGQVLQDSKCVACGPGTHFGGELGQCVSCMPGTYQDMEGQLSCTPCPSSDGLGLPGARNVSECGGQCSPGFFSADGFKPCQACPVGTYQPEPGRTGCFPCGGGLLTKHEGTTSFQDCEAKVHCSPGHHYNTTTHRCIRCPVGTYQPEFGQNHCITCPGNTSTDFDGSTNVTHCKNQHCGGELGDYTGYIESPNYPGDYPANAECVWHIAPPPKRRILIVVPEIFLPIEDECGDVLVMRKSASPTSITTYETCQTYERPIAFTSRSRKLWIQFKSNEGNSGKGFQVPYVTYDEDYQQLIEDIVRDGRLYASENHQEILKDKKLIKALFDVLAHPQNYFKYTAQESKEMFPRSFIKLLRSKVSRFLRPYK
The experiment in a line: co-immunoprecipitation.

The target of a further assay is EGFR (UniProt P00533 25-1210, limits assumed). Kind of assay: co-immunoprecipitation with anti-SCUBE2 antibody.
The target of another assay is VEGFR1 (UniProt P17948 27-1338, limits assumed). The experiment in a line: co-immunoprecipitation with anti-SCUBE2 antibody.
VEGFR1, sequence (P17948 27-1338 limits assumed): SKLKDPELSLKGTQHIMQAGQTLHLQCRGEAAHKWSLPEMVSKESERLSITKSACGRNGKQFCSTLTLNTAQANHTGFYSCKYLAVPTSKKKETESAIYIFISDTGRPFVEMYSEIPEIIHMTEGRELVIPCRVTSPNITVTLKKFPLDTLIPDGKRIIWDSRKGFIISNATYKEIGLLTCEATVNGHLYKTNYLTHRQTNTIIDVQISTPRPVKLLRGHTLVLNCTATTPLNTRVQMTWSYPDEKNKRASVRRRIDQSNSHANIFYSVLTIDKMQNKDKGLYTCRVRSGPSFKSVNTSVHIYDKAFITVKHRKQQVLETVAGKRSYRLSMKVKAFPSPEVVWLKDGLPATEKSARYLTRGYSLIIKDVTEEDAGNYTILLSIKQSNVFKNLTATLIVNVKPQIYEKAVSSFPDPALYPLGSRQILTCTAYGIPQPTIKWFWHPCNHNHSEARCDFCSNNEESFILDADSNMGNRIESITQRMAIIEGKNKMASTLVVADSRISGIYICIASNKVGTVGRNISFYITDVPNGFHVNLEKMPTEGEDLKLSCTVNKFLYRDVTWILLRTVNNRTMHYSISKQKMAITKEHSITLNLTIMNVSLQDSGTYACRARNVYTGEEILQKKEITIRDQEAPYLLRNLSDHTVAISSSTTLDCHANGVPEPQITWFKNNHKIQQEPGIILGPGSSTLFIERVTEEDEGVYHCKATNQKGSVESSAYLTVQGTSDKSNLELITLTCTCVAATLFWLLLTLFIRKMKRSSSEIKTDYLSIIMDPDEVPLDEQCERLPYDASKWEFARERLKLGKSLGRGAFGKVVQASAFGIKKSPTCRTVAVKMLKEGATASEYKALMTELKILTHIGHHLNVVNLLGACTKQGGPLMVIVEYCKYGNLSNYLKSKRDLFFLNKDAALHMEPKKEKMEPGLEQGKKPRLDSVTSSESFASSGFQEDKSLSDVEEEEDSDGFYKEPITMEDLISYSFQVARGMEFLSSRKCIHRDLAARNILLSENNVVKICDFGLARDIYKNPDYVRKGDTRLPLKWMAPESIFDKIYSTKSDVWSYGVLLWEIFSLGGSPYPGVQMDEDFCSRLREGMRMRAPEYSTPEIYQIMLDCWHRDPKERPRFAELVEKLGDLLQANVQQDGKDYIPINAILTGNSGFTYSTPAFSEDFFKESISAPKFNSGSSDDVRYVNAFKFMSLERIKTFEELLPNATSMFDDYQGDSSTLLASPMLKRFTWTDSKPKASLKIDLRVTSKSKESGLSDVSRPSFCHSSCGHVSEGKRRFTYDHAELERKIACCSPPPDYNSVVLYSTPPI
The target in assay [4] is T1, SCUBE3. The experiment in a line: western blot of recombinant SCUBE proteins expressed in HEK-293T cells (FIG. 13A).
In assay [5] the target is T2, SCUBE1. The assay is described as above.

B1: anti-SCUBE2 mAb clone CR-#5 (antibody, IgG2b, V domains shown)
VH: EVQRVESGGDLVKPGGTLKLSCAASGFTFRNYGMSWVRQTPDKRLEWVATISSGGVYIYYPDSVKGRFTISRDNAKNTLFLQMSSLRSEDSAMYYCARDDYDGRGYFDYWGQGTTLTVSS
VL: DIVMSQSPSSLAVSAGEKVTMSCKSSQSLLNSRTRKNYLAWYQQKPGQSPKLLIYWASTRESGVPDRFTGSGSGTDFTLTISSVQAEDLAVYYCKQSYNLPTFGSGTKLDIK
For B1, the binding result in assay [1] is “binds”.

B2: recombinant VEGF165 protein (ligand, UniProt P15692-4 27-191, looked up)
chain: APMAEGGGQNHHEVVKFMDVYQRSYCHPIETLVDIFQEYPDEIEYIFKPSCVPLMRCGGCCNDEGLECVPTEESNITMQIMRIKPHQGQHIGEMSFLQHNKCECRPKKDRARQENPCGPCSERRKHLFVQDPQTCKCSCKNTDSRCKARQLELNERTCRCDKPRR
notes: Bought reagent; also called VEGF-A165
In the case of B2, the binding result with SCUBE3 [2] and in the assay with SCUBE1 [3] was “no binding” throughout.
As for B3, the binding result with EGFR and in the assay with VEGFR1 was “no binding” in each case.

B4: anti-SCUBE2 mAb clone SP-B2 (antibody, IgG1, V domains shown)
VH: EVQRVESGGGLVKPGGSLKLSCAASGFTFRNYAMSWVRQTTEKKLEWVATINDVGSYTYFPASVKGRFTVSRDNTKNTLYLQMSSLRSEDTAMYYCVTSSDTVPHHHALDYWGQGSSVTVSS
VL: DIVMTQPPASLAVSLGQRATVFCRASQNVDSRGISFMHWYQQKPGQPPKLLIYAASNLESGIPARFRGSGSGTDFTLNIHPVEEEDVATYYCQQSVEDLTFGGGTKLELK
Regarding B4, the binding result in assay [1] is “binds”.

B5: anti-SCUBE2 mAb clone EGF-C3 (antibody, IgG2a, V domains shown)
VH: EVKLVESGGGLVQPGGSRKLSCVASGFTISSFGMHWVRQAPERGLEWVAYISSGSNTIYYADTVKGRFTISRDNPKNTLFLQMTSLWSEDTAMYYCARSGTLDGWFTYWGRGTLVTVST
VL: DIVMTQPPLSLPVSLGDQASISCRSSQSILHSNGNTYLEWYLQKPGQSPKLLIYKLFNRFSGVPDRFNGSGSGTDFTLKISRAEAEDLGVYYCLQGSHVPPTFGAGTKLEIK
As to B5, in assay [1], the binding result is given as “binds”.

B6: anti-SCUBE2 mAb clone SP-A1 (antibody, IgG1, V domains shown)
VH: EVQLQQSGPELVKPGASVKVSCKASGYAFTSYNMYWVKQSHGKSLEWIGYIDPYNGDTNNNQKFKGKATLTVDKSSSTAYMHLNSLTSEDSAVYYCARSYRYLAWFAYWGQGTLVTVSA
VL: DIVMTQSPLSLPVSLGDQASISCRSSQSIVHSNGNTYLEWYLQKPGQSPKLLIYTVSNRFSGVPDRFSGSGSGTDFTLRISRVEAEDLGVYYCFQGSHIPYTFGGGTKLELK
notes: Mouse hybridoma mAb, IgG1
For B6, the binding result in assay [1] was “binds”.

B7: anti-SCUBE2 mAb clone SP-B1 (antibody, IgG1, V domains shown)
VH: EVQLQQSGPELVKPGASVKVSCKASGYAFTSYNMYWVKQSHGKSLEWIGYIDPYNGDTNNNQKFKGKATLTVDKSSSTAYMHLNSLTSEDSAVYYCARSYRYLAWFAYWGQGTLVTVSA
VL: DIVMTQSPLSLPVSLGDQASISCRSSQSIVHSNGNTYLEWYLQKPGQSPKLLIYTVSNRFSGVPDRFSGSGSGTDFTLRISRVEAEDLGVYYCFQGSHIPYTFGGGTKLELK
notes: also called SP.B1 mAb
For the molecule B7, the binding result in assay [1] was “binds”; in the assay with SCUBE3 [4] it was “no binding”; with SCUBE1 [5], “no binding”.
